{"source": "paper PMC10397247", "binders": {"B1": {"name": "P9bH1 (peptide)", "chain": "DENKQLEKKNEELKREIWELEKEIEQLEQ"}, "B2": {"name": "4H687-AA (peptide)", "chain": "DEIAALKAENAALEAKIAALKAKNAALEG"}, "B3": {"name": "4H3364-bN (peptide)", "chain": "DKNQQLEQKIQELEQKIQELEWENQELKQ"}}, "key": {"P9bH1": {"biological_target": "T1, P9bH1", "T1 chain": "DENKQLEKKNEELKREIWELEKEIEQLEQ", "experiment": "two-hybrid library CCNG1;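 note: natural log of median RNA to DNA barcode read ratio; higher means stronger binding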"}, "4H687-AA": {"biological_target": "T2, 4H687-AA", "T2 chain": "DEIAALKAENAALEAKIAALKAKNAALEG", "experiment": "two-hybrid library CCmax"}, "4H717-AA": {"biological_target": "T3, 4H717-AA", "T3 chain": "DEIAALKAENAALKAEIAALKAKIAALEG", "experiment": "two-hybrid library CCmax", "conditions": "mean of both orientations"}, "4H797-AA": {"biological_target": "T4, 4H797-AA", "T4 chain": "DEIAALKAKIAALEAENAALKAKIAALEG", "experiment": "two-hybrid library CCmax"}, "4H883-AA": {"biological_target": "T5, 4H883-AA", "T5 chain": "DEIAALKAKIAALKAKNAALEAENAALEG", "experiment": "two-hybrid library CCmax", "conditions": "mean of both orientations"}, "4H918-AA": {"biological_target": "T6, 4H918-AA", "T6 chain": "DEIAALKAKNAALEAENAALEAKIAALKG", "experiment": "two-hybrid library CCmax", "conditions": "mean of both orientations"}, "4H953-AA": {"biological_target": "T7, 4H953-AA", "T7 chain": "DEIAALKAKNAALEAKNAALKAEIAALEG", "experiment": "two-hybrid library CCmax", "conditions": "mean of both orientations"}, "4H967-AA": {"biological_target": "T8, 4H967-AA", "T8 chain": "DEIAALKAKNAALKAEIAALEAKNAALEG", "experiment": "two-hybrid library CCmax", "conditions": "mean of both orientations"}, "4H3364-bN": {"biological_target": "T9, 4H3364-bN", "T9 chain": "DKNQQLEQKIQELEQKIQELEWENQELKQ", "experiment": "two-hybrid library CCNG1"}, "4H3381-bN": {"biological_target": "T10, 4H3381-bN", "T10 chain": "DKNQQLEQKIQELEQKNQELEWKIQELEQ", "experiment": "two-hybrid library CCNG1"}, "4H349-bN": {"biological_target": "T11, 4H349-bN", "T11 chain": "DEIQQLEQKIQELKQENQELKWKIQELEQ", "experiment": "two-hybrid library CCNG1"}, "4H56-bN": {"biological_target": "T12, 4H56-bN", "T12 chain": "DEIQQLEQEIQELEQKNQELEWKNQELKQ", "experiment": "two-hybrid library CCNG1"}, "4H730-bN": {"biological_target": "T13, 4H730-bN", "T13 chain": "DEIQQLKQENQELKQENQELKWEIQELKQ", "experiment": "two-hybrid library CCNG1"}, "4H796-bN": {"biological_target": "T14, 4H796-bN", "T14 chain": "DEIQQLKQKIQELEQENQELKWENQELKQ", "experiment": "two-hybrid library CCNG1"}, "4H932-bN": {"biological_target": "T15, 4H932-bN", "T15 chain": "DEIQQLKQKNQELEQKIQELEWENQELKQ", "experiment": "two-hybrid library CCNG1"}, "4H949-bN": {"biological_target": "T16, 4H949-bN", "T16 chain": "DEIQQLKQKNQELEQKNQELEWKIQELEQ", "experiment": "two-hybrid library CCNG1"}, "O5-bA": {"biological_target": "T17, O5-bA", "T17 chain": "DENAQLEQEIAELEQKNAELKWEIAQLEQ", "experiment": "two-hybrid library CCNG1"}}}
{"binder": "B1", "values": [{"measurement": "interaction score", "setting": "P9bH1", "value": -0.482}]}
{"binder": "B2", "values": [{"measurement": "interaction score", "setting": "4H687-AA", "value": -1.1}, {"measurement": "interaction score", "setting": "4H717-AA", "value": -0.487}, {"measurement": "interaction score", "setting": "4H797-AA", "value": -1.46}, {"measurement": "interaction score", "setting": "4H883-AA", "value": -1.77}, {"measurement": "interaction score", "setting": "4H918-AA", "value": -0.666}, {"measurement": "interaction score", "setting": "4H953-AA", "value": -1.39}, {"measurement": "interaction score", "setting": "4H967-AA", "value": 1.97}]}
{"binder": "B3", "values": [{"measurement": "interaction score", "setting": "4H3364-bN", "value": 0.858}, {"measurement": "interaction score", "setting": "4H3381-bN", "value": -0.731}, {"measurement": "interaction score", "setting": "4H349-bN", "value": -0.763}, {"measurement": "interaction score", "setting": "4H56-bN", "value": -0.197}, {"measurement": "interaction score", "setting": "4H730-bN", "value": 0.217}, {"measurement": "interaction score", "setting": "4H796-bN", "value": 0.309}, {"measurement": "interaction score", "setting": "4H932-bN", "value": -1.67}, {"measurement": "interaction score", "setting": "4H949-bN", "value": -1.23}, {"measurement": "interaction score", "setting": "O5-bA", "value": -0.987}]}
